Assay [1] addresses T1, recombinant human CD122 (human, UniProt P14784 27-239, limits assumed).
T1 construct: also called IL-2Rβ
T1 sequence (looked up): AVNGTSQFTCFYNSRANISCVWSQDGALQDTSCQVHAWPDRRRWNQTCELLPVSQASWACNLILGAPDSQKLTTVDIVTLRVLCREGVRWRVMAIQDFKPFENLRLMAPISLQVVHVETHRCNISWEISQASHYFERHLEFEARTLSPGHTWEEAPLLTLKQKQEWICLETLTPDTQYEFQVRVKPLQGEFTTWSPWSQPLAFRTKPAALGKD
Description: GCI (WAVEsystem). On the procedure: (§1) Binding affinity and kinetics constants of humanized CD122/CD132 FIT-Ig were determined using a label-free biosensor on WAVEsystem (Creoptix AG, Switzerland) by grating-coupled interferometry (GCI). Briefly, a PCP WAVEchip (Creoptix AG) was pre-immobilized with goat anti-human IgG Fc antibody to a density of 3830 pg/mm² by amine coupling, and used to capture humanized CD122/CD132 FIT-Ig generated from Example 3.2.1 to a density of ˜90 pg/mm², then exposed to recombinant human/cyno CD122 or CD132 serially diluted (3× dilutions from 200 nM to […] for human CD122, human CD132 and cyno CD132, respectively; and from 1000 nM to 1.37 nM for cyno CD122) in 1X HBS-EP+ buffer (Cytiva, Cat No. BR100669) by injection at 60 μL/min for 250s to assess association, followed by 1200s dissociation. After each round of association and dissociation, WAVEchip surface was regenerated by subject to pH 1.5 Glycine-HCl buffer injection at 60 μL/min for 120s. Sensorgrams were recorded at 25° C., the data were analyzed on WAVEcontrol (Creoptix AG) and double referenced by subtracting the signals from blank injections and the reference channel. A Langmuir 1:1 model was used for data fitting.

Assay [2] has as its target T2, recombinant human CD132 (human, UniProt P31785 23-262, limits assumed).
T2 construct: also called IL-2Rγ
T2 sequence (looked up): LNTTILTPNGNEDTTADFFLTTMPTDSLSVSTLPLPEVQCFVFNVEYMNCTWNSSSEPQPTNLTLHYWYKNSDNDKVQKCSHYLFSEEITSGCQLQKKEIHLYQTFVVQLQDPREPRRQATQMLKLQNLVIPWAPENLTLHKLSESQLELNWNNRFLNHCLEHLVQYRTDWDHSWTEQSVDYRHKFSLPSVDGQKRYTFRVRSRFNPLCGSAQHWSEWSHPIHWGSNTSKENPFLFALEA
Description: GCI (WAVEsystem). The method, then: as §1

Experimental findings from patent publication US20250002594A1 (SHANGHAI EPIMAB BIOTHERAPEUTICS, published 2025) are described below.

B1: huFIT2019-86b-17 (bispecific antibody, human IgG1, kappa, L234A L235A)
chain 1: not shown
chain 2: EVQLVQSGAEVKKPGASVKVSCKASGYTFTDYVISWVRQATGQGLEWMGEIYPGDAQTYYNEMFKGRVTMTRDTSISTAYMELSSLRSEDTAVYYCARGSYTYDNYAMDFWGQGTTVTVSSASTKGPSVFPLAPSSKSTSGGTAALGCLVKDYFPEPVTVSWNSGALTSGVHTFPAVLQSSGLYSLSSVVTVPSSSLGTQTYICNVNHKPSNTKVDKKVEPKSC
chain 3: not shown
Take B1: the binding result in assay [1] and in assay [2] was “binds” each time.

B2: huFIT2019-86b-15 (bispecific antibody, human IgG1, kappa, L234A L235A)
chain 1: not shown
chain 2: EVQLVQSGAEVKKPGASVKVSCKASGYTFTDYVISWVKQATGQGLEWIGEIYPGDAQTYYNEMFKGRATLTADKSISTAYMELSSLRSEDTAVYYCARGSYTYDNYAMDFWGQGTTVTVSSASTKGPSVFPLAPSSKSTSGGTAALGCLVKDYFPEPVTVSWNSGALTSGVHTFPAVLQSSGLYSLSSVVTVPSSSLGTQTYICNVNHKPSNTKVDKKVEPKSC
chain 3: not shown
B2: the binding result in assay [1] and in assay [2] was “binds” in each case.

B3: huFIT2019-86b-11 (bispecific antibody, human IgG1, kappa, L234A L235A)
chain 1: not shown
chain 2: EVQLVQSGAEVKKPGASVKVSCKASGYTFTDYVISWVRQATGQGLEWMGEIYPGDAQTYYNEMFKGRVTMTRDTSISTAYMELSSLRSEDTAVYYCARGSYTYDNYAMDFWGQGTTVTVSSASTKGPSVFPLAPSSKSTSGGTAALGCLVKDYFPEPVTVSWNSGALTSGVHTFPAVLQSSGLYSLSSVVTVPSSSLGTQTYICNVNHKPSNTKVDKKVEPKSC
chain 3: not shown
For B3, the binding result in assay [1] and in assay [2] was “binds” throughout.

B4: huFIT2019-86b-20 (bispecific antibody, human IgG1, kappa, L234A L235A)
chain 1: not shown
chain 2: EVQLVQSGAEVKKPGASVKVSCKASGYTFTDYVISWVRQATGQGLEWMGEIYPGDAQTYYNEMFKGRVTLTADTSISTAYMELSSLRSEDTAVYYCARGSYTYDNYAMDFWGQGTTVTVSSASTKGPSVFPLAPSSKSTSGGTAALGCLVKDYFPEPVTVSWNSGALTSGVHTFPAVLQSSGLYSLSSVVTVPSSSLGTQTYICNVNHKPSNTKVDKKVEPKSC
chain 3: not shown
With B4, the binding result in assay [1] and in assay [2] was “binds” each time.

B5: huFIT2019-86b-14 (bispecific antibody, human IgG1, kappa, L234A L235A)
chain 1: not shown
chain 2: EVQLVQSGAEVKKPGASVKVSCKASGYTFTDYVISWVRQATGQGLEWMGEIYPGDAQTYYNEMFKGRVTLTADTSISTAYMELSSLRSEDTAVYYCARGSYTYDNYAMDFWGQGTTVTVSSASTKGPSVFPLAPSSKSTSGGTAALGCLVKDYFPEPVTVSWNSGALTSGVHTFPAVLQSSGLYSLSSVVTVPSSSLGTQTYICNVNHKPSNTKVDKKVEPKSC
chain 3: not shown
For the molecule B5, the binding result in assay [1] and in assay [2] was “binds” throughout.

B6: huFIT2019-86b-16 (bispecific antibody, human IgG1, kappa, L234A L235A)
chain 1: not shown
chain 2: EVQLVQSGAEVKKPGASVKVSCKASGYRFSDYVISWVKQATGQGLEWIGEIYPGDAQTYYNEMFKGRATLTADKSISTAYMELSSLRSEDTAVYFCARGSYTYDNYAMDFWGQGTTVTVSSASTKGPSVFPLAPSSKSTSGGTAALGCLVKDYFPEPVTVSWNSGALTSGVHTFPAVLQSSGLYSLSSVVTVPSSSLGTQTYICNVNHKPSNTKVDKKVEPKSC
chain 3: not shown
Consider B6, for which the binding result in assay [1] and in assay [2] was “binds” each time.

B7: huFIT2019-86b-13 (bispecific antibody, human IgG1, kappa, L234A L235A)
chain 1: not shown
chain 2: EVQLVQSGAEVKKPGASVKVSCKASGYRFSDYVISWVRQATGQGLEWMGEIYPGDAQTYYNEMFKGRVTMTADTSISTAYMELSSLRSEDTAVYYCARGSYTYDNYAMDFWGQGTTVTVSSASTKGPSVFPLAPSSKSTSGGTAALGCLVKDYFPEPVTVSWNSGALTSGVHTFPAVLQSSGLYSLSSVVTVPSSSLGTQTYICNVNHKPSNTKVDKKVEPKSC
chain 3: not shown
With B7, the binding result in assay [1] and in assay [2] was “binds” in each case.

B8: huFIT2019-86b-19 (bispecific antibody, human IgG1, kappa, L234A L235A)
chain 1: not shown
chain 2: EVQLVQSGAEVKKPGASVKVSCKASGYRFSDYVISWVRQATGQGLEWMGEIYPGDAQTYYNEMFKGRVTMTADTSISTAYMELSSLRSEDTAVYYCARGSYTYDNYAMDFWGQGTTVTVSSASTKGPSVFPLAPSSKSTSGGTAALGCLVKDYFPEPVTVSWNSGALTSGVHTFPAVLQSSGLYSLSSVVTVPSSSLGTQTYICNVNHKPSNTKVDKKVEPKSC
chain 3: not shown
With B8, the binding result in assay [1] and in assay [2] was “binds” throughout.

B9: huFIT2019-86b-23 (bispecific antibody, human IgG1, kappa, L234A L235A)
chain 1: not shown
chain 2: EVQLVQSGAEVKKPGASVKVSCKASGYTFTDYVISWVRQATGQGLEWMGEIYPGDAQTYYNEMFKGRVTMTRDTSISTAYMELSSLRSEDTAVYYCARGSYTYDNYAMDFWGQGTTVTVSSASTKGPSVFPLAPSSKSTSGGTAALGCLVKDYFPEPVTVSWNSGALTSGVHTFPAVLQSSGLYSLSSVVTVPSSSLGTQTYICNVNHKPSNTKVDKKVEPKSC
chain 3: not shown
In the case of B9, the binding result in assay [1] and in assay [2] was “binds” throughout.

B10: huFIT2019-86b-21 (bispecific antibody, human IgG1, kappa, L234A L235A)
chain 1: not shown
chain 2: EVQLVQSGAEVKKPGASVKVSCKASGYTFTDYVISWVKQATGQGLEWIGEIYPGDAQTYYNEMFKGRATLTADKSISTAYMELSSLRSEDTAVYYCARGSYTYDNYAMDFWGQGTTVTVSSASTKGPSVFPLAPSSKSTSGGTAALGCLVKDYFPEPVTVSWNSGALTSGVHTFPAVLQSSGLYSLSSVVTVPSSSLGTQTYICNVNHKPSNTKVDKKVEPKSC
chain 3: not shown
As to B10, the binding result in assay [1] and in assay [2] was “binds” throughout.

B11: huFIT2019-86b-22 (bispecific antibody, human IgG1, kappa, L234A L235A)
chain 1: not shown
chain 2: EVQLVQSGAEVKKPGASVKVSCKASGYRFSDYVISWVKQATGQGLEWIGEIYPGDAQTYYNEMFKGRATLTADKSISTAYMELSSLRSEDTAVYFCARGSYTYDNYAMDFWGQGTTVTVSSASTKGPSVFPLAPSSKSTSGGTAALGCLVKDYFPEPVTVSWNSGALTSGVHTFPAVLQSSGLYSLSSVVTVPSSSLGTQTYICNVNHKPSNTKVDKKVEPKSC
chain 3: not shown
On to B11, for which the binding result in assay [1] and in assay [2] was “binds” each time.

B12: huFIT2019-86b-18 (bispecific antibody, human IgG1, kappa, L234A L235A)
chain 1: not shown
chain 2: EVQLVQSGAEVKKPGASVKVSCKASGYTFTDYVISWVRQATGQGLEWMGEIYPGDAQTYYNEMFKGRVTMTADTSISTAYMELSSLRSEDTAVYYCARGSYTYDNYAMDFWGQGTTVTVSSASTKGPSVFPLAPSSKSTSGGTAALGCLVKDYFPEPVTVSWNSGALTSGVHTFPAVLQSSGLYSLSSVVTVPSSSLGTQTYICNVNHKPSNTKVDKKVEPKSC
chain 3: not shown
Turning to B12, the binding result in assay [1] and in assay [2] was “binds” each time.

B13: huFIT2019-86b-12 (bispecific antibody, human IgG1, kappa, L234A L235A)
chain 1: not shown
chain 2: EVQLVQSGAEVKKPGASVKVSCKASGYTFTDYVISWVRQATGQGLEWMGEIYPGDAQTYYNEMFKGRVTMTADTSISTAYMELSSLRSEDTAVYYCARGSYTYDNYAMDFWGQGTTVTVSSASTKGPSVFPLAPSSKSTSGGTAALGCLVKDYFPEPVTVSWNSGALTSGVHTFPAVLQSSGLYSLSSVVTVPSSSLGTQTYICNVNHKPSNTKVDKKVEPKSC
chain 3: not shown
Turning to B13, the binding result in assay [1] and in assay [2] was “binds” throughout.

B14: huFIT2019-86b-24 (bispecific antibody, human IgG1, kappa, L234A L235A)
chain 1: not shown
chain 2: EVQLVQSGAEVKKPGASVKVSCKASGYTFTDYVISWVRQATGQGLEWMGEIYPGDAQTYYNEMFKGRVTMTADTSISTAYMELSSLRSEDTAVYYCARGSYTYDNYAMDFWGQGTTVTVSSASTKGPSVFPLAPSSKSTSGGTAALGCLVKDYFPEPVTVSWNSGALTSGVHTFPAVLQSSGLYSLSSVVTVPSSSLGTQTYICNVNHKPSNTKVDKKVEPKSC
chain 3: not shown
Turning to B14, the binding result in assay [1] and in assay [2] was “binds” throughout.
